Biological target: SARS-CoV-2 N-NTD (WT) (SARS-CoV-2, UniProt P0DTC9 41-174)
Experiment: SPR

## AAGUUCGUUU (ssRNA) [viral RNA derived intergenic sequence]
  Kd: 140 µM
